# Laboratory results taken from patent publication US20250277767A1.
# B1: mAb-EspB-B7 (antibody, V domains shown)
# VH: EVQLLESGGGLVQPGGSLRLSCAASGFTFSHYAMNWVRQAPGKGLEWVSAINSNGDSTYYPDTVKDRFTISRDNSKNTLYLQMNSLRAEDTAVYYCARDRRAGYFDYWGQGTLVTVSS
# VL: DIVLTQPPSASGTPGQRVTISCSGSRDNIGKNYVSWYQQLPGTAPKLLIYRNNQRPSGVPDRFSGSKSGTSASLAISGLRSEDEADYYCSAWDTSLNAYVFGPGTQLTVL
# How the values were obtained:
# [1] = target: peptide #49 (cyclic EspB peptide, positions 193-207) (Enteropathogenic Escherichia coli (EPEC)); test: ELISA, plate coated with peptide #49, serially diluted mAb
# [2] = target: peptide #50 (cyclic EspB peptide, positions 197-211) (Enteropathogenic Escherichia coli (EPEC)); test: ELISA, plate coated with peptide #50, serially diluted mAb
# [3] = target: peptide #49+50 (combined sequences of peptides #49 and #50) (Enteropathogenic Escherichia coli (EPEC)); test: ELISA, plate coated with peptide #49+50, serially diluted mAb
Binder,EC50 (read off the curve) [1] [µg/mL],EC50 (read off the curve) [2] [µg/mL],EC50 (read off the curve) [3] [µg/mL],IC50 (read off the curve) (mAb-EspB-B7) [µg/mL]
B1,0.5,0.5,0.3,
CTSAQKASQVAEEAADAAQEC (modifications not checked) [peptide #49+50 (combined sequences of peptides #49 and #50)],,,,2
